The target of assay [1] is T1, Cbp80 (tag not named for Figures 4C-D and 5D) (S. cerevisiae, UniProt P34160 1-861).
T1 sequence (looked up): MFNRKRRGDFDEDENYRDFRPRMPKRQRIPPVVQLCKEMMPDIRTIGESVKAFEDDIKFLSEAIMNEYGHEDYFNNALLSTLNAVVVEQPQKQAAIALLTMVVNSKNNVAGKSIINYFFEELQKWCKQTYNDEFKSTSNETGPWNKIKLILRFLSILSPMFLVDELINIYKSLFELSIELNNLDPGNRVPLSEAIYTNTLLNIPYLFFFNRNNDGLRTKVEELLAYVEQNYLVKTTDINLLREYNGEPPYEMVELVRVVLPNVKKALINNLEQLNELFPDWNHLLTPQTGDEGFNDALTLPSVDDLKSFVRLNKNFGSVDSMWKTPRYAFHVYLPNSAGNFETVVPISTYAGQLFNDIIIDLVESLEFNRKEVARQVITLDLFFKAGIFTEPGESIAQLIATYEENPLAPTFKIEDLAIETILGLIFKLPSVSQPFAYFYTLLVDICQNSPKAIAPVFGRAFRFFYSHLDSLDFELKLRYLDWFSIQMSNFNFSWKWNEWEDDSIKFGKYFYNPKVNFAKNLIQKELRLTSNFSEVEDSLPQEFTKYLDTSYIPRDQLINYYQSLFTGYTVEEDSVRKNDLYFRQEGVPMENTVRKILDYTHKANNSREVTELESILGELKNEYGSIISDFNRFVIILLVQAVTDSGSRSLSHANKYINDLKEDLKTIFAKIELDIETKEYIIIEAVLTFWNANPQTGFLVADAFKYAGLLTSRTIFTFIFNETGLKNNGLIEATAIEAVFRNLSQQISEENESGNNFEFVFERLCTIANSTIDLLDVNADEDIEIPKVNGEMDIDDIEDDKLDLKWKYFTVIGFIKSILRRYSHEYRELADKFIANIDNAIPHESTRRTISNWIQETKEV
In words: co-IP.

The target of the next assay is T2, Mex67 (S. cerevisiae, UniProt Q99257 1-599).
T2 sequence (looked up): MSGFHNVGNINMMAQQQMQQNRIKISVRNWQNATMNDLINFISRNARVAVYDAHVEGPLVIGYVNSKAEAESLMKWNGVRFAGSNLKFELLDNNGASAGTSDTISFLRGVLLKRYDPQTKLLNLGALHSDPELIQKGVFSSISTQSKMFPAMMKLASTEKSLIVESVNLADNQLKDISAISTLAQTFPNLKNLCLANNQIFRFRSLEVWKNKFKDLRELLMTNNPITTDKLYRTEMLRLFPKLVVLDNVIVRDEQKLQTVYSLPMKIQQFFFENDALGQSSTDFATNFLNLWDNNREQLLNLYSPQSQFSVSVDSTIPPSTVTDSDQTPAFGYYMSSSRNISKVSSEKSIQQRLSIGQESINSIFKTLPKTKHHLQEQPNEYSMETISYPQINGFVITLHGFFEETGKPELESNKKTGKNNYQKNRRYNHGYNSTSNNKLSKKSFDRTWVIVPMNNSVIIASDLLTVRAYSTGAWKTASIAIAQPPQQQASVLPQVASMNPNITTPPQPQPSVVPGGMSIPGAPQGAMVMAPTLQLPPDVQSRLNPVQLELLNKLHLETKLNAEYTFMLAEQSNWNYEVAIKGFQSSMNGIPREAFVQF
The assay can be described thus: co-IP.

B1: Npl3 (natural protein, S. cerevisiae, UniProt Q01560 1-414, looked up)
chain: MSEAQETHVEQLPESVVDAPVEEQHQEPPQAPDAPQEPQVPQESAPQESAPQEPPAPQEQNDVPPPSNAPIYEGEESHSVQDYQEAHQHHQPPEPQPYYPPPPPGEHMHGRPPMHHRQEGELSNTRLFVRPFPLDVQESELNEIFGPFGPMKEVKILNGFAFVEFEEAESAAKAIEEVHGKSFANQPLEVVYSKLPAKRYRITMKNLPEGCSWQDLKDLARENSLETTFSSVNTRDFDGTGALEFPSEEILVEALERLNNIEFRGSVITVERDDNPPPIRRSNRGGFRGRGGFRGGFRGGFRGGFSRGGFGGPRGGFGGPRGGYGGYSRGGYGGYSRGGYGGSRGGYDSPRGGYDSPRGGYSRGGYGGPRNDYGPPRGSYGGSRGGYDGPRGDYGPPRDAYRTRDAPRERSPTR
With B1, the “co-IP signal in cet1-2 relative to wild type” value in assay [1] is ~60%. The “drop of the co-IP signal in cet1-2 and rat1-1 cells relative to wild type” value in the assay with Mex67 was ~20%.

Values taken from article PMC9638935 (Nucleic Acids Research, 2022).
